Test results from PMC8310559.

These substances were tested against ectodomain of SARS-CoV-2 S protein (a.a. 1-1208 (SARS-CoV-2) (UniProt P0DTC2)) (assay: SPR).

Compared with CR3022 Fab, CR3022 IgG (antibody) is 220-fold lower in Kd: 45.4 nM for the first, 0.21 nM for the second.

CR3022 scFv VHVL and CR3022 scFv VLVH are within 1.5-fold of each other in Kd: 20.1 nM for the first, 27.8 nM for the second.
